# Data as given in the RNAGym collection of RNA variant scans (doi:10.7554/elife.80360).
# B1: HDV Ribozyme (parent)
# chain: GGCCGGCAUGGUCCCAGCCUCCUCGCUGGCGCCGGCUGGGCAACAUUCCGAGGGGACCGUCCCCUCGGUAAUGGCGAAUGGGACCCA
# Variants of: B1
# Assay: self-cleavage, relative activity (ratio to wild type); higher = more cleavage; co-transcriptional
row,Variant,self-cleavage
1,GGCCGGCAUGGUCCCAGCCUCCUCGCUGGCGCCGGCUGGGCAACAUUCCGAGGGGACCGACCCCUCGGUAAUGGUGAAUGGGACCCA,0.253
2,GGCCGGCAUGGUCCCAGCCUCCUCGCUGGCGCCGGCUGGGCAACAUUCCGAGGGGAGCGUCCCCUCGGUAAUGGCGAGUGGGACCCA,0.629
3,GGCCGGCAUGGUCCCAGCCUCCUCGCUGGCGCCGGCUGGGCAACAUUCCGAGGGGACCGUCUCCUCGGUUAUGGCGAAUGGGACCCA,0.831
4,GGCCGGCAUGGUCCCAGCCUCCUCGCUGGCGCCGGCUGGGCAACAUUCCGAGGAGACCGUCCCGUCGGUAAUGGCGAAUGGGACCCA,0.657
5,GGCCGGCAUGGUCCCAGCCUCCUCGCUGGCGCCGGCUGGGCAACAUUCCGAGUGGACCGUCCCCUCGGUAAUGGCGAAUGCGACCCA,0.385
6,GGCCGGCAUGGUCCCAGCCUCCUCGGUGGCGCCGGCCGGGCAACAUUCCGAGGGGACCGUCCCCUCGGUAAUGGCGAAUGGGACCCA,1.01
7,GGCCGGCAUGGUCCCAGCCUCCUCGCCGACGCCGGCUGGGCAACAUUCCGAGGGGACCGUCCCCUCGGUAAUGGCGAAUGGGACCCA,0.125
8,GGCCGGCAUGGUCCUAGCCUCCUCGCUGGCGCCGGCUGGGCAACAUUCCGAGGGGACCGUCCCCUCGGUAAGGGCGAAUGGGACCCA,0.665
9,GGCCGGCAUUGUCCCAGCCUCCUCGCUGGCGCCGGCUGAGCAACAUUCCGAGGGGACCGUCCCCUCGGUAAUGGCGAAUGGGACCCA,0.199
10,UGCCGGCAUGGUCCCAGCCUCCUCGCUGGCGCCGGCUGGGCAACAUUCCGAGGGGAACGUCCCCUCGGUAAUGGCGAAUGGGACCCA,0.423
11,GGCCGGCAUGGUCCCAGCCUCCUCGCUGGCGCCUGCUGGGCAACAUCCCGAGGGGACCGUCCCCUCGGUAAUGGCGAAUGGGACCCA,0.234
12,GGCCGGCAUGGUCCCAGCCUCCUCGCUGGCGCAGUCUGGGCAACAUUCCGAGGGGACCGUCCCCUCGGUAAUGGCGAAUGGGACCCA,0.137
13,GGCCGGCAUGGUCCCAGCCUCCUCGCUGGCGCCGGCUGGGCAACAUUCAGAGGGGACCGUCCCCUCGGUAAUAGCGAAUGGGACCCA,0.314
14,GGCCGGCAUGGUCCCAGCCUCCUCGCUGGCGCGGGCUGGGCAACAUUCCGAGGGGACCGUCCCGUCGGUAAUGGCGAAUGGGACCCA,0.156
15,GGCCGGCAUGGUCCCAGCCUCCUCGCUGGGGCCGGCUGGGCAACAUUCCGAGGGGACCGUCCCCUCUGUAAUGGCGAAUGGGACCCA,0.112
16,GGCCGGCAUGGUCCCAGUCUCCUCGCUGGCGCCGGCUGGGCAACAUUCCGAGGGGACCGUCCCCUCGGCAAUGGCGAAUGGGACCCA,0.878

row,Variant,self-cleavage
1,GGCCGACAUGGUCCCAGCCUCCUCGCUGGCGCCGGCUGGGCAACAUUCCGAGGGGACCGGCCCCUCGGUAAUGGCGAAUGGGACCCA,0.365
2,GGCCGGCAUGGUCCCAGCCUCCUCGCUGGCGCCGGCUUUGCAACAUUCCGAGGGGACCGUCCCCUCGGUAAUGGCGAAUGGGACCCA,0.0573
3,GGCCGGCAUAGUCCCAGCCUCCUCGCUGGCGCCGGCUGGGCAACAUUCCGAGGGGACCGUCCCCUCGGUAAUGCCGAAUGGGACCCA,0.105
4,GGCCGGCCUGGUCCCAGCCUCCUCGCUGGCGCCGGCUGGGCAACAUUCCGAGGGGACCGUCCCCUCGGCAAUGGCGAAUGGGACCCA,0.831
5,GGCCGGCAUGGUCCCAGCCUCCUCGCUGGCGCCGGCUGGGCAACAUUCCGAGGCGACCGUCCCCUCGGUAAUGGCUAAUGGGACCCA,1.11
6,GGCCGGCAUGGUCCCAGCCUCCCCGCUGGCGCCGGCUGGGCAACAUUCCGAGUGGACCGUCCCCUCGGUAAUGGCGAAUGGGACCCA,0.938
7,GGCCGGCAUGGUCACAGCCUCCUCGCUGGCGCCCGCUGGGCAACAUUCCGAGGGGACCGUCCCCUCGGUAAUGGCGAAUGGGACCCA,0.151
8,GGCCGGCAUGGUCCCAGCCUCCUCUCUGACGCCGGCUGGGCAACAUUCCGAGGGGACCGUCCCCUCGGUAAUGGCGAAUGGGACCCA,0.0369
9,GGCCGGCAUGGUCCCUGCCUCCUCGCUGGCGCCGGCUGGGCAACAUUCCGAGGGUACCGUCCCCUCGGUAAUGGCGAAUGGGACCCA,1.09
10,GGCCGGCAUGGUCCCAGCCUCCUCGCUGGCGCCGGCUAGGCAACAUUCCGAGGGGACCGUCCCCUCGCUAAUGGCGAAUGGGACCCA,0.197
11,GGCCGGCAUGGUCCCAGCCUCCUCGCUGGCGCCGGCUGGGCAACAUUCCGAGGGGACCGUCACCUCGGUAAUGGCCAAUGGGACCCA,1.02
12,GGCCGGCAUGGUCCCAGCCUCCUCGCUGGCGCCGGCUGGGCAACAUUCCGAGGGGACCGUCCCCUCGGUAAUGUCGAAGGGGACCCA,0.199
13,GGCCGGCAUGCUCCCAGCCUCCUCGCUGGCGGCGGCUGGGCAACAUUCCGAGGGGACCGUCCCCUCGGUAAUGGCGAAUGGGACCCA,0.0875
14,GGCCGGCAUGGUCCCAGCUUCCUCGCUGGCGCCGGCUGGGCAACGUUCCGAGGGGACCGUCCCCUCGGUAAUGGCGAAUGGGACCCA,0.111
15,GGCCGGCAUGGUCCCAGCCUCCUCGCUGGCGCCGGCUGGGCCACAUUCGGAGGGGACCGUCCCCUCGGUAAUGGCGAAUGGGACCCA,0.178
16,GGCCGGCAUGGUCCCAGCCUCCUCGCUGGCGUCGGCUGGGCAACAUUCCGUGGGGACCGUCCCCUCGGUAAUGGCGAAUGGGACCCA,0.884
